First the molecules themselves.
B1: POU domain, class 3, transcription factor 2, residues 262 to 338; numbered along this chain, P20265 (parent)
chain: EDTPTSDDLEQFAKQFKQRRIKLGFTQADVGLALGTLYGNVFSQTTICRFEALQLSFKNMCKLKPLLNKWLEEADSS

± gives the uncertainty stated by the source.

The variants in this series derive from B1. The series is described as follows: abundance fitness (aPCA) (normalised: wild type 0, dead -1); higher = more abundant; growth selection in yeast, the domain comes from the species named. The conditions noted are these: Homo sapiens.
Turning to EDTPTSDDLEQFAKQFKQRRIKLGFTQADVGLALGTLYGNVFSQTTICRFEALQLSFKNMCKLKPLLNKDLEEADSS, the abundance fitness was -0.431 ± 0.15.
In the case of EDTPTSDDLEQFAKQFKQRRIKLGFTQADVGLALGTLYGNVFSQTTICRFEALQLSFKNMCKLKPLLNKQLEEADSS, the abundance fitness is -0.728 ± 0.088.
The value for EDTPTSDDLEQFAKQFKQRRIKLGFTQADVGLALGTLYGNVFSQTTICRFEALQLSFKNMCKLKPLLNKMLEEADSS was -0.669 ± 0.084; that for EDTPTSDDLEQFAKQFKQRRIKLGFTQADVGLALGTLYGNVFSQTTICRFEALQLSFKNMCKLKPLLNKPLEEADSS was -0.853 ± 0.11; that for EDTPTSDDLEQFAKQFKQRRIKLGFTQADVGLALGTLYGNVFSQTTICRFEALQLSFKNMCKLKPLLNKNLEEADSS was -0.358 ± 0.18.
Regarding EDTPTSDDLEQFAKQFKQRRIKLGFTQADVGLALGTLYGNVFSQTTICRFEALQLSFKNMCKLKPLLNKKLEEADSS, the abundance fitness was -0.814 ± 0.12.
On to EDTPTSDDLEQFAKQFKQRRIKLGFTQADVGLALGTLYGNVFSQTTICRFEALQLSFKNMCKLKPLLNKRLEEADSS, for which the abundance fitness was -0.649 ± 0.039.
The value for EDTPTSDDLEQFAKQFKQRRIKLGFTQADVGLALGTLYGNVFSQTTICRFEALQLSFKNMCKLKPLLNKILEEADSS was -0.64 ± 0.15; that for EDTPTSDDLEQFAKQFKQRRIKLGFTQADVGLALGTLYGNVFSQTTICRFEALQLSFKNMCKLKPLLNKGLEEADSS was -0.754 ± 0.041; that for EDTPTSDDLEQFAKQFKQRRIKLGFTQADVGLALGTLYGNVFSQTTICRFEALQLSFKNMCKLKPLLNKCLEEADSS was -0.698 ± 0.11.
In the case of EDTPTSDDLEQFAKQFKQRRIKLGFTQADVGLALGTLYGNVFSQTTICRFEALQLSFKNMCKLKPLLNKFLEEADSS it was -0.111 ± 0.068; in that of EDTPTSDDLEQFAKQFKQRRIKLGFTQADVGLALGTLYGNVFSQTTICRFEALQLSFKNMCKLKPLLWKWLEEADSS, 0.004 ± 0.1.
Turning to EDTPTSDDLEQFAKQFKQRRIKLGFTQADVGLALGTLYGNVFSQTTICRFEALQLSFKNMCKLKPLLPKWLEEADSS, the abundance fitness was -0.98 ± 0.47.
For the variant EDTPTSDDLEQFAKQFKQRRIKLGFTQADVGLALGTLYGNVFSQTTICRFEALQLSFKNMCKLKPLLTKWLEEADSS, the abundance fitness stood at 0.046 ± 0.085.
In the case of EDTPTSDDLEQFAKQFKQRRIKLGFTQADVGLALGTLYGNVFSQTTICRFEALQLSFKNMCKLKPLLQKWLEEADSS it was -0.313 ± 0.43; in that of EDTPTSDDLEQFAKQFKQRRIKLGFTQADVGLALGTLYGNVFSQTTICRFEALQLSFKNMCKLKPLLRKWLEEADSS, -0.004 ± 0.074; in that of EDTPTSDDLEQFAKQFKQRRIKLGFTQADVGLALGTLYGNVFSQTTICRFEALQLSFKNMCKLKPLLAKWLEEADSS, -0.007 ± 0.077.
The value for EDTPTSDDLEQFAKQFKQRRIKLGFTQADVGLALGTLYGNVFSQTTICRFEALQLSFKNMCKLKPLLLKWLEEADSS was 0.004 ± 0.07; that for EDTPTSDDLEQFAKQFKQRRIKLGFTQADVGLALGTLYGNVFSQTTICRFEALQLSFKNMCKLKPLLCKWLEEADSS was -0.096 ± 0.13.
In the case of EDTPTSDDLEQFAKQFKQRRIKLGFTQADVGLALGTLYGNVFSQTTICRFEALQLSFKNMCKLKPLLDKWLEEADSS it was -0.182 ± 0.12; in that of EDTPTSDDLEQFAKQFKQRRIKLGFTQADVGLALGTLYGNVFSQTTICRFEALQLSFKNMCKLKPLLVKWLEEADSS, 0.085 ± 0.077.
EDTPTSDDLEQFAKQFKQRRIKLGFTQADVGLALGTLYGNVFSQTTICRFEALQLSFKNMCKLKPLLMKWLEEADSS: the abundance fitness was -0.284 ± 0.27.
In the case of EDTPTSDDLEQFAKQFKQRRIKLGFTQADVGLALGTLYGNVFSQTTICRFEALQLSFKNMCKLKPLLGKWLEEADSS it was 0.074 ± 0.065.
In the case of EDTPTSDDLEQFAKQFKQRRIKLGFTQADVGLALGTLYGNVFSQTTICRFEALQLSFKNMCKLKPILNKWLEEADSS it was -0.071 ± 0.063; in that of EDTPTSDDLEQFAKQFKQRRIKLGFTQADVGLALGTLYGNVFSQTTICRFEALQLSFKNMCKLKPHLNKWLEEADSS, -0.274 ± 0.08; in that of EDTPTSDDLEQFAKQFKQRRIKLGFTQADVGLALGTLYGNVFSQTTICRFEALQLSFKNMCKLKPGLNKWLEEADSS, -0.536 ± 0.037.
The value for EDTPTSDDLEQFAKQFKQRRIKLGFTQADVGLALGTLYGNVFSQTTICRFEALQLSFKNMCKLKPYLNKWLEEADSS was -0.22 ± 0.081; that for EDTPTSDDLEQFAKQFKQRRIKLGFTQADVGLALGTLYGNVFSQTTICRFEALQLSFKNMCKLKPWLNKWLEEADSS was -0.148 ± 0.034; that for EDTPTSDDLEQFAKQFKQRRIKLGFTQADVGLALGTLYGNVFSQTTICRFEALQLSFKNMCKLKPKLNKWLEEADSS was -0.096 ± 0.043.
Take EDTPTSDDLEQFAKQFKQRRIKLGFTQADVGLALGTLYGNVFSQTTICRFEALQLSFKNMCKLKPRLNKWLEEADSS: the abundance fitness is -0.242 ± 0.029.
As to EDTPTSDDLEQFAKQFKQRRIKLGFTQADVGLALGTLYGNVFSQTTICRFEALQLSFKNMCKLKPVLNKWLEEADSS, the abundance fitness is -0.077 ± 0.03.
In the case of EDTPTSDDLEQFAKQFKQRRIKLGFTQADVGLALGTLYGNVFSQTTICRFEALQLSFKNMCKLKPSLNKWLEEADSS it was -0.423 ± 0.041; in that of EDTPTSDDLEQFAKQFKQRRIKLGFTQADVGLALGTLYGNVFSQTTICRFEALQLSFKNMCKLKPQLNKWLEEADSS, -0.233 ± 0.046.
The value for EDTPTSDDLEQFAKQFKQRRIKLGFTQADVGLALGTLYGNVFSQTTICRFEALQLSFKNMCKLKPMLNKWLEEADSS was -0.015 ± 0.042.
Turning to EDTPTSDDLEQFAKQFKQRRIKLGFTQADVGLALGTLYGNVFSQTTICRFEALQLSFKNMCKLKPPLNKWLEEADSS, the abundance fitness was -0.437 ± 0.064.
Take EDTPTSDDLEQFAKQFKQRRIKLGFTQADVGLALGTLYGNVFSQTTICRFEALQLSFKNMCKLKPNLNKWLEEADSS: the abundance fitness is -0.504 ± 0.1.

Source of the values: the Human Domainome abundance scans (Beltran et al. 2025).
